According to patent US6861508B2, “Transcriptional intermediary factor-2” (Institut National de la Sante et de la Recherche Medicale, priority 1996, dated 2005):
Where a chain is given by its changes, count along the chain named.

Tests used:
[1] = biological target: T1, (His)6-TIF2.1, E. coli-expressed purified recombinant TIF2.1 (human, UniProt Q15596 624-1287); test: GST interaction assay (not shown)
T1 construct: also called His-tagged TIF2.1; purified TIF2.1 protein; not shown: (His)6 tag of pET15b
T1 sequence: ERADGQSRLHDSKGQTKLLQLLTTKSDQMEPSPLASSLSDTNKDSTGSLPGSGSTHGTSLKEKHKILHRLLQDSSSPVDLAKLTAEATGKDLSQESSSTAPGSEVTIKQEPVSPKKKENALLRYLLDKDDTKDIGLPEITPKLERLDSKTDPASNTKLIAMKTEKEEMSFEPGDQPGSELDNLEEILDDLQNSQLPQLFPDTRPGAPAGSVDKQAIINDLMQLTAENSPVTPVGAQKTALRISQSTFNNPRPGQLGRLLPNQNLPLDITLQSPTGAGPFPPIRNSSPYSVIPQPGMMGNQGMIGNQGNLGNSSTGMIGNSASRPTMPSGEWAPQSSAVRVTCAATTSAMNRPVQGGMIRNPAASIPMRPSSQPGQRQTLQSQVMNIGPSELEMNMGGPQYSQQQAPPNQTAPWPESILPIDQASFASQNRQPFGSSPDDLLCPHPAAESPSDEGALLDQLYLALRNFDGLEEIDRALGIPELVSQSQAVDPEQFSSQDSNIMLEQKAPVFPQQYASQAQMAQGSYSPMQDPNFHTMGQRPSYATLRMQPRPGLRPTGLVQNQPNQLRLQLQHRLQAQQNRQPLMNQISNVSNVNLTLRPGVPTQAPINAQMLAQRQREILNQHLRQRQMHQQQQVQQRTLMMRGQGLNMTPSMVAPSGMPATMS

GAL4 reporter = test: GAL4 DBD-TIF2 fusion CAT reporter transactivation assay; format: cell-based; conditions: Cos-1 and/or HeLa cells
Description: (a) HeLa cells were cotransfected with 1 μg (17m)5-βG-CAT and 10 μg GAL(1-147) or 1,3 and 10 μg GAL(1-147)-TIF2.1, respectively.
(c) Analysis of the transcriptional activity of GAL-TIF2 fusion proteins. Cos-1 and HeLa cells were transfected with 3 lag of plasmids expressing different regions of TIF2 fised to the DNA-binding domain of the yeast transcription factor GALA together with 1 μg of the (7m)5-G-CAT reporterplasmid. CAT assays were performed as described (Bocquel, M. T. et al., Nucl Acids Res. 17:2581-2595 (1989)). Quantitative data on CAT reporter expression were obtained either by phosphoimager analysis (BAS2000, Fuji) of ^14C-labeled CAT reaction products separated by thin-layer chromatography, or using the CAT ELISA Kit (Boehringer Mannheim). In all cases, CAT activities were normalized to the β-galactosidase concentrations resulting from cotransfection of 1 μg of pCMVPGal (gift from T. Lerouge) as internal control. Fold inductions above the GAL4 DBD value are indicated. The mean and standard deviation of at least three experiments are shown. A representative Western blot, illustrating the expression levels of the GAL4-TIF2 fusion proteins, expressed from 10 μg of the corresponding expression vectors, is shown on the left.
(b) Transcriptional activation of TIF2 AF-1 mutants. Cos-1 and HeLa cells were cotransfected with 3 μg of plasmids expressing different mutants of the TIF2 AF-1 fused to the DNA-binding domain of the yeast transcription factor GAL4 together with 1 μg of the (17m)5-G-CAT reporter plasmid. Fold inductions above the activation seen with the GAL4 DBD alone are indicated. The values represent the mean of at least three experiments.
(a) Transcriptional activation by TIF2.13 and TIF2.13 mutants. Cos-1 and HeLa cells were cotransfected with 3 μg of plasmids expressing the TIF2.13 region and the indicated TIF2.13 mutants fused to the DNA-binding domain of the yeast transcription factor GALA together with 1 μg of the (17m)5-G-CAT reporter plasmid. Fold inductions above the GAL4 DBD 1-fold value are indicated. The mean and standard deviation obtained from at least four experiments are shown. The expression levels of the GAL4-TIF2.13 fusion proteins were confirmed by western blotting (data not shown).
Transient transfections of HeLa and Cos-1 cells were performed as described (Gronemeyer et al., (1987); Bocquel, M. T. et al., Nucl. Acids Res. 17:2581-2595 (1989)).

GAL-CBP = test: two hybrid analysis of CBP-TIF2 interaction in HeLa cells; format: cell-based
Description: (e) Two hybrid analysis of the CBP-TIF2 interaction in mammalian cells in vivo. HeLa cells were transfected with 0.2 μg of the GAL4 or GALA-CBP (expressing CBP residues 1872 to 2165) expression vectors together with 0.2 μg of the VP16 or VPI6-TF2 expression vectors in the presence of 2 μg of (17m)5-TATA-CAT reporter plasmid. Fold induction relative to the GAL-CBP activity is indicated. The mean of three experiments is shown; in each case, values varied by less than ±20%.
HeLa cells were transfected with 0.2 μg of GAL4 or GAL-CBP expression vectors together with 0.2 μg of VP16 or VP16-TIF2.13 expression vectors in the presence of 1 μg of (17m)5-TATA-CAT reporter plasmid. Data are represented as fold induction of the activity seen with GAL-CBP alone. The mean and standard, deviation obtained from ten experiments are shown. The expression levels were confirmed by Western blotting with antibodies directed against GAL4 DBD and VP16 AAD (data not shown).
Furthermore, it was reported that SRC-1, which belongs to the same gene family as TIF2, interacts with CBP and p300 (Kamei, Y. et al., Cell 85:403-414 (1996); Yao, T. P. et al., Proc. Natl. Acad. Sci. USA 93:10626-10631 (1996); Hanstein, B., et al., Proc. Natl. Acad Sci USA 93:11540-11545 (1996)). Using GST-fusion protein-based interaction and animal cell-based two hybrid assays, we therefore analyzed whether TIF2 could also interact with CBP. […] A GST-CBP fusion protein was expressed in E. coli and used for puU-down assays with in vitro translated TIF2 polypeptides (FIG. 7d).

[2] = biological target: T2, GST-mRXRα(DE) (pGEX2T-mRXRα(DE), amino acids 205-467) (mouse, UniProt P28700 205-467); test: in vitro GST interaction of TIF2.1 point mutants, with ligand, relative to TIF2.1 wild type
T2 construct: range 205-467; also called GST-RXR; GST-RXRα(DE); not shown: glutathione-S-transferase (GST) of pGEX2T (Pharmacia)
T2 sequence (looked up): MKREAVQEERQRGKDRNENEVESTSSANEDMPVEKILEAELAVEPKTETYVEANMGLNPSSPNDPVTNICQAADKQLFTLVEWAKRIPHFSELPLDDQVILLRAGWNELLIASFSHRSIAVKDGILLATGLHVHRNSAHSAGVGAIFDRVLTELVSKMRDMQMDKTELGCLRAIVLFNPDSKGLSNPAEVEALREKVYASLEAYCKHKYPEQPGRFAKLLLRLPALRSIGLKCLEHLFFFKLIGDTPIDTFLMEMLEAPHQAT

[3] = biological target: T3, GST-hRARα(DEF) (pGEX2T-hRARα(DEF), amino acids 153-462) (human, UniProt P10276 153-462); test: as above
T3 construct: range 153-462; Bacterially produced; also called GST-RAR; GST-RARα(DEF); not shown: glutathione-S-transferase (GST) of pGEX2T (Pharmacia)
T3 sequence (looked up): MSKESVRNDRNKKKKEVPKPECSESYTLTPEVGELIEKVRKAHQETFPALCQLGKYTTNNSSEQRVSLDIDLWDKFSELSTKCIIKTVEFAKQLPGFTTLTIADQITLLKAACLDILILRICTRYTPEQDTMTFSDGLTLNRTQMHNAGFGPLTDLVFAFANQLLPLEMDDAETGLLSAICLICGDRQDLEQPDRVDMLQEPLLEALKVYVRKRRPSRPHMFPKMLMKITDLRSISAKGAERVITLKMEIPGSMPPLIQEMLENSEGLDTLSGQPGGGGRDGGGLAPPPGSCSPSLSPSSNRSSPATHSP

[4] = biological target: T3, GST-hRARα(DEF) (pGEX2T-hRARα(DEF), …); test: GST pull-down with 35S in-vitro-translated TIF2 polypeptides (FIG. 7a-b)
[5] = biological target: T4, GST-hERα(DEF) (pGEX2T-hERα(DEF), amino acids 282-595) (human, UniProt P03372 282-595); test: as above
T4 construct: range 282-595; Bacterially produced; also used 32P-labelled as Far-Western probe; also called GST-ER; GST-ER(DEF); not shown: glutathione-S-transferase (GST) of pGEX2T (Pharmacia)
T4 sequence (looked up): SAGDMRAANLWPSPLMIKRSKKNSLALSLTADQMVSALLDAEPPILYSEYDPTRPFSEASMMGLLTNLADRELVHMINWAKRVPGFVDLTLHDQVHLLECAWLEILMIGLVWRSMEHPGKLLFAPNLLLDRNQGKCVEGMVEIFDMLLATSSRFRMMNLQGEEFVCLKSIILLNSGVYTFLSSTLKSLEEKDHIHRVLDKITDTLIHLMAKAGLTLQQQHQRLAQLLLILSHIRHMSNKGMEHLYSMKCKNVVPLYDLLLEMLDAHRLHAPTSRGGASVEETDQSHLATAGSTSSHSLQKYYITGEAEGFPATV

B1: GST-hTAFII18 (printed hTAFn18) (other, human, UniProt Q15543 1-124, looked up)
chain: MADEEEDPTFEEENEEIGGGAEGGQGKRKRLFSKELRCMMYGFGDDQNPYTESVDILEDLVIEFITEMTHKAMSIGRQGRVQVEDIVFLIRKDPRKFARVKDLLTMNEELKRARKAFDEANYGS
notes: not shown: glutathione-S-transferase (GST)
B1: no binding [1].

B2: TIF2.13: TIF2 fragment Pro1011 to Ser1122 (protein, UniProt Q15596 1011-1122, looked up, fragment)
chain: PSELEMNMGGPQYSQQQAPPNQTAPWPESILPIDQASFASQNRQPFGSSPDDLLCPHPAAESPSDEGALLDQLYLALRNFDGLEEIDRALGIPELVSQSQAVDPEQFSSQDS
With B2 the “transcriptional activation of GAL4 reporter by GAL4 DBD fusion” value (GAL4 reporter) was “potent transcriptional activity” and the “interaction with GAL-CBP, two hybrid” value (GAL-CBP) was “also interacted with CBP in vivo”.

B3: TIF2.1 m13 (LL→AA in NR box motifs I and III) (other)
chain: T1 sequence with L21A, L22A, L125A, L126A
notes: also called single intact NR box II
For B3, the “times less efficient in NR interaction than the wild-type TIF2” value (“times less efficient” below) [2] was 5 times less efficient than wild type and the “times less efficient” value [3] was 5 times less efficient than wild type.

B4: TIF2.1 m23 (LL→AA in NR box motifs II and III) (other)
chain: T1 sequence with L70A, L71A, L125A, L126A
notes: also called single intact NR box I
In the case of B4, the “times less efficient” value [2] is reported as 20 times less efficient than wild type and the “times less efficient” value [3] is reported as 20 times less efficient than wild type.

B5: GST-hTAFII20 (printed hTAFn20) (other, human, UniProt Q16514 1-161, looked up)
chain: MNQFGPSALINLSNFSSIKPEPASTPPQGSMANSTAVVKIPGTPGAGGRLSPENNQVLTKKKLQDLVREVDPNEQLDEDVEEMLLQIADDFIESVVTAACQLARHRKSSTLEVKDVQLHLERQWNMWIPGFGSEEIRPYKKACTTEAHKQRMALIRKTTKK
notes: as for B1
B5: no binding [1].

B6: TIF2.12 (TIF2 amino acids 940-1131) (other)
chain: IGNSASRPTMPSGEWAPQSSAVRVTCAATTSAMNRPVQGGMIRNPAASIPMRPSSQPGQRQTLQSQVMNIGPSELEMNMGGPQYSQQQAPPNQTAPWPESILPIDQASFASQNRQPFGSSPDDLLCPHPAAESPSDEGALLDQLYLALRNFDGLEEIDRALGIPELVSQSQAVDPEQFSSQDSNIMLEQKAP
notes: In-vitro-translated
B6: no binding [4]; no binding [5].

B7: GST-hTAFII55 (printed hTAFn55) (other, human, UniProt Q15545 1-349, looked up)
chain: MSKSKDDAPHELESQFILRLPPEYASTVRRAVQSGHVNLKDRLTIELHPDGRHGIVRVDRVPLASKLVDLPCVMESLKTIDKKTFYKTADICQMLVSTVDGDLYPPVEEPVASTDPKASKKKDKDKEKKFIWNHGITLPLKNVRKRRFRKTAKKKYIESPDVEKEVKRLLSTDAEAVSTRWEIIAEDETKEAENQGLDISSPGMSGHRQGHDSLEHDELREIFNDLSSSSEDEDETQHQDEEDINIIDTEEDLERQLQDKLNESDEQHQENEGTNQLVMGIQKQIDNMKGKLQETQDRAKRQEDLIMKVENLALKNRFQAVLDELKQKEDREKEQLSSLQEELESLLEK
notes: as for B1
B7: no binding [1].
